Substitutions are numbered along the chain they refer to. In names and notes the source's numbering stands.

The target in test [1] is T1, L1-CAM recombinant protein (His Tag), human (human, UniProt P32004 20-1120).
T1 construct: Bought protein; also called CD171; human L1-CAM; not shown: His tag
Briefly: SPR (Biacore 8K); L1-CAM immobilised on CM5 chip, antibody as analyte.

Test [2] deals with T1, L1-CAM recombinant protein (His Tag), …. Briefly: GCI (Creoptix WAVEdelta); antibody captured on protein A/G, L1-CAM as analyte, 1:1 model.
For test [3] the target is unchanged. Briefly: SPR (Biacore 8K) as in Example 6, new batch of L1-CAM on the chip. On the technique in general: In SPR one partner is held on a chip, and binding of the other changes the refractive index at the surface.
Description: (§1) In the SPR experiment, antigen is immobilized on sensor chip and solutions containing antibody at various concentrations are flown over the antigen. real time measurement of kinetics parameters is performed, including their on/off rates (ka and kd). Based thereon, binding affinity constant KD is determined.
Test [4] shares this target. Briefly: ELISA, human L1-CAM coated at 2 µg/ml. A general note: ELISA stands for enzyme-linked immunosorbent assay.
Test [5] has the same target. Briefly: SPR (Biacore 8K); L1-CAM immobilised on CM5 chip, antibody as analyte. The source holds these as a separate data set.
Description: as §1
Test [6] has the same target. Briefly: ELISA, human L1-CAM coated at 2 µg/ml; second of two values in the cell; second of two values in the cell.
Test [7] has the same target. Briefly: ELISA, human L1-CAM coated at 2 µg/ml; first of two values in the cell; first of two values in the cell.
The target is the same in test [8]. Briefly: ELISA, human L1-CAM coated at 2 µg/ml; second of two values in the cell.
Test [9] shares this target. Briefly: ELISA, human L1-CAM coated at 2 µg/ml; first of two values in the cell.

T1 sequence (P32004 20-1120 limits assumed): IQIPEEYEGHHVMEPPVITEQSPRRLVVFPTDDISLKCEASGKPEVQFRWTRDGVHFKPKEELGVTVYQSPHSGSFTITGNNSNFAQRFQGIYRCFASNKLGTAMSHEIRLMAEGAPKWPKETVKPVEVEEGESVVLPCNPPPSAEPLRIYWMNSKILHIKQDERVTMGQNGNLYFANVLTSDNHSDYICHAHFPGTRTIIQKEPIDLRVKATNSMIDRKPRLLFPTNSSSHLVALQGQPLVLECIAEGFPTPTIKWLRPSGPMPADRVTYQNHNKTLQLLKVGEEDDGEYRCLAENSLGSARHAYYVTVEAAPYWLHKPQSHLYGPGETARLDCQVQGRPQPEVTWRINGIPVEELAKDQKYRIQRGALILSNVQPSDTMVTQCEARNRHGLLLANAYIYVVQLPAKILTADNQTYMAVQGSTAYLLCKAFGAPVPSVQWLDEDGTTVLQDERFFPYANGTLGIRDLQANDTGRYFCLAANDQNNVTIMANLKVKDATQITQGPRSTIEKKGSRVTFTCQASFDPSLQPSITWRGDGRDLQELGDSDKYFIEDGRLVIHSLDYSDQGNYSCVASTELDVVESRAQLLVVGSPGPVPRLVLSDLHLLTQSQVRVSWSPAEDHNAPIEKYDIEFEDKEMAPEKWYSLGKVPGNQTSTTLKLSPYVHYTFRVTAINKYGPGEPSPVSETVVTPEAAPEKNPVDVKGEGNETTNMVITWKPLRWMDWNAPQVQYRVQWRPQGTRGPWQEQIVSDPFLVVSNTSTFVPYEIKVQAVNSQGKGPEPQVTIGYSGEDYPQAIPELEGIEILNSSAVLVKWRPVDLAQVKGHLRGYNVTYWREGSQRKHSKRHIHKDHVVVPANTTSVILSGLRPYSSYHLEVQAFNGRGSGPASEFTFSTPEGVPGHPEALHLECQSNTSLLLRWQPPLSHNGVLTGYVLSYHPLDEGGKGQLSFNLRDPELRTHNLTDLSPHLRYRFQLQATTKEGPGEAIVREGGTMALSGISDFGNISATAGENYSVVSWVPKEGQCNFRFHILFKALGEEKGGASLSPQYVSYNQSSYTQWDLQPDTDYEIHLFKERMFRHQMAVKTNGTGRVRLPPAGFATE

B1: CE7-variant18-AG (antibody)
heavy: QVQLQQWGAGLLKPSETLSLTCAAYGYTFTGYWMHWIRQPPGKGLEWIGEINPSNGRTNYNERLKSRVTLSVDKSKNQASLKLSSVTAADTAVYFCARDYYGTSYNFDYWGQGTLVTVSSASTKGPSVFPLAPSSKSTSGGTAALGCLVKDYFPEPVTVSWNSGALTSGVHTFPAVLQSSGLYSLSSVVTVPSSSLGTQTYICNVNHKPSNTKVDKKVEPKSCDKTHTCPPCPAPEAAGGPSVFLFPPKPKDTLMISRTPEVTCVVVDVSHEDPEVKFNWYVDGVEVHNAKTKPREEQYASTYRVVSVLTVLHQDWLNGKEYKCKVSNKALPASIEKTISKAKGQPREPQVYTLPPSREEMTKNQVSLTCLVKGFYPSDIAVEWESNGQPENNYKTTPPVLDSDGSFFLYSKLTVDKSRWQQGNVFSCSVMHEALHNHYTQKSLSLSPGK
light: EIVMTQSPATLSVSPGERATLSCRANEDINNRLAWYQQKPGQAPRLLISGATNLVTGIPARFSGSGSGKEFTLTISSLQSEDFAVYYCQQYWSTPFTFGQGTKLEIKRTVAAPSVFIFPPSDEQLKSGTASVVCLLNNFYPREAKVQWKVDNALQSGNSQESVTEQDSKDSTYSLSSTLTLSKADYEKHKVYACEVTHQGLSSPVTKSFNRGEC
notes: CE7-4-34-VHA (L234A L235A P331S N297A) + CE7-3-15-VLB, aglycosylated human IgG1 kappa; N297 of IgG1 numbering is residue 319 of the entry (QYNST); also called CE7-varant18-AG
As for B1, in test [1], the Kd – broadly, a measure of binding affinity in units of concentration – was 1.24 pM; the koff (in general, the first-order rate constant of dissociation) came to 1.35e-06 s⁻¹; the kon (in general, the rate constant with which the complex forms) stood at 1.09e+06 M⁻¹ s⁻¹.

B2: CE7-variant7-AG (antibody, human IgG1, kappa, L234A L235A, N297A)
heavy: QVQLVQSGAEVKKPGASVKVSCKASGYTFTGYWMHWVRQAPGQGLEWIGEINPSNGRTNYNERFQGRVTLTVDKSISTAYMELSRLRSDDTAVYYCARDYYGTSYNFDYWGQGTLVTVSSASTKGPSVFPLAPSSKSTSGGTAALGCLVKDYFPEPVTVSWNSGALTSGVHTFPAVLQSSGLYSLSSVVTVPSSSLGTQTYICNVNHKPSNTKVDKKVEPKSCDKTHTCPPCPAPEAAGGPSVFLFPPKPKDTLMISRTPEVTCVVVDVSHEDPEVKFNWYVDGVEVHNAKTKPREEQYASTYRVVSVLTVLHQDWLNGKEYKCKVSNKALPASIEKTISKAKGQPREPQVYTLPPSREEMTKNQVSLTCLVKGFYPSDIAVEWESNGQPENNYKTTPPVLDSDGSFFLYSKLTVDKSRWQQGNVFSCSVMHEALHNHYTQKSLSLSPGK
light: DIQMTQSPSSLSASVGDRVTITCKANEDINNRLAWYQQKPGKAPKLLISGATNLVTGVPSRFSGSGSGKDYTLTISSLQPEDFATYYCQQYWSTPFTFGQGTKLEIKRTVAAPSVFIFPPSDEQLKSGTASVVCLLNNFYPREAKVQWKVDNALQSGNSQESVTEQDSKDSTYSLSSTLTLSKADYEKHKVYACEVTHQGLSSPVTKSFNRGEC
notes: CE7-1-2-VHB (L234A L235A P331S N297A) + CE7-1-NL1-VLA, aglycosylated human IgG1 kappa; also called CE7-varant7-AG; huCE7 variant 7AG
Regarding B2, the Kd in test [2] was about 4000 pM; in test [3], 23.8 pM; in test [1], under 9.71 pM. For the same molecule, the off-rate constant (koff) in [3] is 3.53e-05 s⁻¹; in [1], under 1e-05 s⁻¹. Besides, the kon came out at 1.48e+06 M⁻¹ s⁻¹ in test [3] and 1.03e+06 M⁻¹ s⁻¹ in test [1]. Further, the EC50 (usually the concentration that produces a half-maximal response) in test [4] stood at 0.0258 µg/mL.

B3: huCE7 variant LV38 (antibody, human IgG1, kappa, L234A L235A, N297A)
heavy: B2 heavy with W33F, G56A, L312D
light: B2 light with N31A, W92Y
notes: Variant 7AG with HC WH33F, GH55A, LH309D and LC NL31A, WL92Y; also called huCE7-variant38
Take B3: in [3], the Kd is 268 pM, the koff is 3.23e-05 s⁻¹ and the kon is 121000 M⁻¹ s⁻¹.

B4: CE7-variant28 (antibody, V domains shown)
VH: QVQLVQSGAEVKKPGASVKVSCKASGYTFTGYWMHWVRQAPGQGLEWMGEINPSNGRTNYNEKFQGRVTLTVDKSISTAYMELSRLRSDDTAVYYCARDYYGTSYNFDYWGQGTLVTVSS
VL: DIQMTQSPSSLSASVGDRVTITCRASQGINNRLAWYQQKPGKAPKLLISGASNLVSGVPSRFSGSGSGKDYTLTISSLQPEDFATYYCQQYWSTPFTFGQGTKLEIKR
notes: CE7-1-2-VHD + CE7-1-NL1-VLD; human IgG1 kappa, L234A L235A P331S N297A (aglycosylated); also called humanized variant 28
In the case of B4, the EC50 in [4] was 0.0701 µg/mL. In test [5], the Kd was determined as 46 pM, the koff was determined as 3.62e-05 s⁻¹ and the kon was 787000 M⁻¹ s⁻¹.

B5: huCE7 variant LV42 (antibody, human IgG1, kappa, L234A L235A, N297A)
heavy: B2 heavy with T310P
light: B2 light
notes: Variant 7AG with HC TH307P; also called huCE7-variant42
Regarding B5, in [3], the kon is 1.92e+06 M⁻¹ s⁻¹.

B6: CE7-variant26 (antibody, V domains shown)
VH: B4 VH
VL: B4 VL with S26N, Q27E, G28D, S52T, S56T
notes: CE7-1-2-VHD + CE7-1-NL1-VLB; human IgG1 kappa, L234A L235A P331S N297A (aglycosylated); also called humanized variant 26
Consider B6, for which the EC50 in [4] was 0.0127 µg/mL. For the same molecule, in test [5], the Kd was found to be 0.186 pM, the koff was 1.65e-07 s⁻¹ and the kon amounted to 891000 M⁻¹ s⁻¹.

B7: CE7-variant7 (antibody)
heavy: B2 heavy with A300N
light: B2 light
notes: also called CE7-12-VHB-1NL1-VLA; humanized variant 7
With B7, the EC50 in [6] was found to be 0.0327 µg/mL. In [7], the EC50 was found to be 0.00958 µg/mL. Moreover, in [5], the Kd is 0.896 pM, the koff is 5.51e-07 s⁻¹ and the kon turned out to be 615000 M⁻¹ s⁻¹.

B8: CE7-variant4-AG (antibody)
heavy: B2 heavy with Q65K, G66S, Y95F
light: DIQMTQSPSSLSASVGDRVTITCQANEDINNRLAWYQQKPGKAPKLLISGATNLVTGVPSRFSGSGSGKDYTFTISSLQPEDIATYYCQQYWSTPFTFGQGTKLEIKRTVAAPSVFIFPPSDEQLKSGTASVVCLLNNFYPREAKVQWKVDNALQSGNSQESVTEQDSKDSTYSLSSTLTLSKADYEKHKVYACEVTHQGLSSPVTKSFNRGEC
notes: CE7-1-2-VHA (L234A L235A P331S N297A) + CE7-1-33-VLB, aglycosylated human IgG1 kappa; also called CE7-varant4-AG
Regarding B8, in test [1], the Kd stood at 0.664 pM, the koff was 8.18e-07 s⁻¹ and the kon was found to be 1.23e+06 M⁻¹ s⁻¹.

B9: chimeric cHCE7 (antibody, V domains shown)
VH: QVQLQQPGAELVKPGASVKLSCKASGYTFTGYWMHWVKQRPGHGLEWIGEINPSNGRTNYNERFKSKATLTVDKSSTTAFMQLSGLTSEDSAVYFCARDYYGTSYNFDYWGQGTTLTVSS
VL: DIQMTQSSSSFSVSLGDRVTITCKANEDINNRLAWYQQTPGNSPRLLISGATNLVTGVPSRFSGSGSGKDYTLTITSLQAEDFATYYCQQYWSTPFTFGSGTELEIK
notes: Control antibody; also called chimeric HCE7; CE7 chimeric antibody
Turning to B9, in test [1], the Kd was 51.9 pM, the koff stood at 4.39e-05 s⁻¹ and the kon came out at 845000 M⁻¹ s⁻¹. Also, in [8], the EC50 came out at 0.0232 µg/mL. Also, in [9], the EC50 was determined as 0.00663 µg/mL.

B10: Deglycosylated cHCE7 (antibody, V domains shown)
VH: B9 VH
VL: B9 VL
modifications: deglycosylated (so in the source); site and method not stated for this sample
notes: also called cHCE7 degly; cHCE7 deglycosylated
Turning to B10, the Kd in test [2] is about 4000 pM. Besides, in [4], the EC50 was determined as 0.0131 µg/mL. In [1], the Kd turned out to be 120 pM, the off-rate (koff) was 9.59e-05 s⁻¹ and the kon was found to be 806000 M⁻¹ s⁻¹.

For the origin of these results see US20260055182A1 (CIS BIOPHARMA, published 2026).
